Results as given in patent publication US20260167739A1 (PHANES THERAPEUTICS, published 2026).
Residue numbers refer to the chain shown, from its start.

T1: human 5T4 (32-355) tagged with poly-his at the C-terminus (ACROBiosystems, CAT #TPG-H52E5) (human, UniProt Q13641 32-355)
T1 construct: range 32-355; Bought protein; also called recombinant human 5T4; recombinant 5T4 Ser32-Ser355; not shown: C-terminal poly-his tag
T1 sequence (looked up): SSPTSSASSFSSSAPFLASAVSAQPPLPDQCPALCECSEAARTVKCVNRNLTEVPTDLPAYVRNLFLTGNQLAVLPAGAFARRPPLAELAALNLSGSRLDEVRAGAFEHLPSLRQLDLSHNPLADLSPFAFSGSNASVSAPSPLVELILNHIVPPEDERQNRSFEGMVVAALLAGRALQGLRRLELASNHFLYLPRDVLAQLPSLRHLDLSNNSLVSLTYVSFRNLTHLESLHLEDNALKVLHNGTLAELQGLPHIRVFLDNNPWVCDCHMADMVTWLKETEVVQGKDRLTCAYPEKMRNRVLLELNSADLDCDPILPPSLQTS

B1: L1C7-C (antibody, V domains shown)
VH: EFQLQQSGPEVVKPGASVKISCKASGYSFTVYNMNWVKQSNGKSLDWIGVINPNYGTVTYNQKFKGKATLTVDQSSSTAYMQLNSLSSEDSAVYYCATTATWGQGTTLTVSS
VL: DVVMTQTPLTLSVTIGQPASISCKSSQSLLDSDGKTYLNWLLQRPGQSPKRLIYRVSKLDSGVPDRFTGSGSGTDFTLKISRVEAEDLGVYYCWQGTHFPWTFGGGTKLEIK
notes: Mouse VH and VL fused to human IgG1 heavy and kappa light constant regions; also called chimeric version of L1C7
B2: S3C7-C (antibody, V domains shown)
VH: EVKLVESGGGLVNTGGSLKLSCAASGFNFSHYYMYWVRQTPEKRLEWVAYIGNSGGSTYNPDTVKGRFTISRDNAKNTLYLQMSRLKSEDTAIYYCARQNYYSGSFYFDSWGQGTTITVSS
VL: NIVLTQSPTSMSMSVGERVTLSCKASENVGTYVSWYQQKPEQSPKLLIYGKSNRYTGVPDRFTGSGSAPDFTLTISSVQAEDLADYYCGQSYSFPFTFGTGTKLEIK
notes: Mouse VH and VL fused to human IgG1 heavy and kappa light constant regions; also called chimeric version of S3C7
B3: L1H7-C (antibody, V domains shown)
VH: QVQLQQSGPELVKPGASVKISCKASGYAFSSSWMNWVKQRPGKGLEWIGRIYPGNGNTNYNGKFKGKATLTADKSSSTAYMQLNSLTSEDSAVYFCASRFAYWGQGTLVAVSA
VL: DIVLTQSPASLAVSLGQRATISCRASKSVSTSGYSYMHWYQQKPGQPPKLLIYLASNLESGVPARFSGSGSGTDFTLNIHPVEEEDAATYYCQHSRELRTFGGGTKLEIK
notes: Mouse VH and VL fused to human IgG1 heavy and kappa light constant regions; also called chimeric version of L1H7
B4: L3D5-C (antibody, V domains shown)
VH: GVQLQQSGPELVKPGASVKISCKASGYTFTDFYMNWVKQSHGKSLEWIGDINPNNGVTTYNQKFKDKATLTVDKSSSTAYMELRSLTSEDSAVYYCATGAIHYGYDGYFDVWGAGTTVTVSS
VL: DIVMTQSPATLSVTPGDRVSLSCRASQSISDYLHWYQQKSHESPRLLIKYASQSISGIPSRFSGSGSGSDFTLSINSVEPEDVGVYYCQNGHSFPLTFGAGTKLELK
notes: Mouse VH and VL fused to human IgG1 heavy and kappa light constant regions; also called chimeric version of L3D5
B5: L2B11-C (antibody, V domains shown)
VH: EVKLVESEGGLVQPGSSMKLSCTASGFTFSDYYMAWVRQVPEKGLEWVGNINYDGSRTYYLDSLKSRFIISRDNGKNILYLQMSSLKSEDTATYYCAREGDNYGNSHYAMDYWGQGTSVTVSS
VL: DVLMTQTPLSLPVSLGDQASISCRSSQSFVHSNGNTYLEWYLQKPGQSPKLLIYKVSNRFSGVPDRFTGSGSGTDFTLKISRVEAEDLGVYYCFQGSHVPLTFGAGTRLELK
notes: Mouse VH and VL fused to human IgG1 heavy and kappa light constant regions; also called chimeric version of L2B11
B6: S2F4-C (antibody, V domains shown)
VH: EVQLVESGGGLVKPGGSLKLSCAASGFTFSDYGMHWVRQAPEKGLEWIAYISFGSSTIYYADTVKGRFTISRDNAKNTLFLQMTSLRSEDTAMYYCARTHGYYRSWFAYWGQGTLVTVSA
VL: DIVLTQSPASLAVSLGQRATISCRASQSVSTSSYSYMNWYQQKPGQPPKLLIKYASNLESGVPARFSGSGSGTDFTLNIHPVEEEDTATYYCQHSWEIPLTFGAGTKLELK
notes: Mouse VH and VL fused to human IgG1 heavy and kappa light constant regions; also called chimeric version of S2F4
B7: L1D8-CR11-C (antibody, V domains shown)
VH: QVQLQQSGAELMKPGASLKLSCKATGYTFTGYWIEWVKQRPGHGLEWIGEILPGRSSTNYNERFKGKAIFTADTSSNTAYMQLSSLTTEDSAIYYCARGRRDFDYWGQGTTITVSS
VL: SIVMTQTPKFLPVSAGDRVTMTCKASQSVGNNVAWYQQKPGQSPKVLIYDASNRYTGVPDRFTGSGSGTDFTFTISSVQVEDLAVYFCQQYYSSPPTFGAGTKLELK
notes: Mouse VH and VL fused to human IgG1 heavy and kappa light constant regions; also called chimeric version of L1D8-CR11; LID8-CR11
B8: L1D8-CR21-C (antibody, V domains shown)
VH: B7 VH with Y32S
VL: B7 VL
notes: Mouse VH and VL fused to human IgG1 heavy and kappa light constant regions; also called chimeric version of L1D8-CR21; LID8-CR21
B9: L1F2-C (antibody, V domains shown)
VH: QVHLQQSGAELVRPGTSVKVSCKASGYAFTNYVIEWVKQRPGQGLEWIGVINPGSGGTNYNENFKGKATLTADKSSSTAYMQLSSLTSEDSAVYFCARGTVELYAMDYWGQGTSVTVSS
VL: DIQMTQTTSSLSASLGDRVTISCRASQDISYYLNWYQQKPDGTVKLLISYTSRLHSGVPSRFSGSGSGTDYSLTISNLEQEDIATYFCQQDIKHPYTFGGGTELEIK
notes: Mouse VH and VL fused to human IgG1 heavy and kappa light constant regions; also called chimeric version of L1F2
B10: L3F10-C (antibody, V domains shown)
VH: EVKLVESGGGLVNTGGSLKLSCAASGFTFSDYFMYWVRQTPDKRLEWVAYISNSGGNTYYPDTVKGRFTISRDNAKNTLYLQMSRLKSEDTAMYFCTRPRPYGGYYAGIYYAMDYWGQGTSVTVSS
VL: DIQMTQTTSSLSASLGDRVTISCRASQDISNYLNWYQQKPDGTVKLLIYYTSRLHSGVPSRFSGSGSGTDYSLTISNLEPEDIATYYCQQYSKLPLTFGAGTKLELK
notes: Mouse VH and VL fused to the constant regions of human IgG1 heavy chain and kappa light chain; also called chimeric version of L3F10
B11: L3E1-C (antibody, V domains shown)
VH: QVQLQQFGAELVKPGAAVKMSCKASGYTFTSYWITWVKQRPGQGLDWIGDIYPGGGSTNYHEKFKSKATLTVDTSSSTAYMQLSSLTSEDSAVYYCARGLRDFDYWGQGTTITVSS
VL: B10 VL with T8A, D28H, S30N, Y50S, Y71F, L96R, A100G, L106I
notes: Mouse VH and VL fused to human IgG1 heavy and kappa light constant regions; also called chimeric version of L3E1

target: T1, human 5T4 (32-355) tagged with poly-his …; assay: ELISA, 5T4-His coated on the plate
Text: FIGS. 1A-IC show the binding of purified chimeric anti-5T4 mAbs (VH and VL regions of mouse mAb fused to the constant regions of human IgG1 heavy chain and kappa light chain, respectively) to immobilized recombinant 5T4 in an ELISA assay. The antigen was human 5T4 (32-355) tagged with poly-his at the C-terminus (ACROBiosystems, CAT #TPG-H52E5). L3F10-C, the chimeric version of L3F10; the same naming rule is used for the rest of the antibodies. Isotype Control (IgG1), a negative control antibody.
Purified chimeric mAbs were tested in an ELISA assay for their ability to bind to immobilized 5T4. Recombinant human 5T4 (ACROBiosystems, CAT #TPG-H52E5) in PBS was coated onto a 96-well plate (Corning, CAT #3361) at 4° C. overnight. The next day, plates were blocked using 5% BSA in TBST for 1 hour at room temperature and washed using TBST. Antibody samples at various concentrations in 5% BSA in TBST were added to the wells and incubated for 1 hour at room temperature. Plates were washed with TBST and bound antibody was labeled using mouse anti-human IgG Fc HRP (Thermo, CAT #H10007) for 1 hour at room temperature. Plates were washed again using TBST, and then ELISAs were developed using 1 Step Ultra TMB detection reagent (Thermo, CAT #34028) for 4 minutes before being quenched with ELISA stop solution (Thermo. CAT #SS04). Plates were quantified by measuring absorbance at 450 nm by plate reader.

Row | Binder | binding result
1 | B1 | binds
2 | B2 | binds
3 | B3 | binds
4 | B4 | binds
5 | B5 | binds
6 | B6 | binds
7 | B7 | binds
8 | B8 | binds
9 | B9 | binds
10 | B10 | binds
11 | B11 | binds
